# B1: Abscisic acid receptor PYR1 (Arabidopsis thaliana (Mouse-ear cress)), O49686 (parent)
# chain: MPSELTPEERSELKNSIAEFHTYQLDPGSCSSLHAQRIHAPPELVWSIVRRFDKPQTYKHFIKSCSVEQNFEMRVGCTRDVIVISGLPANTSTERLDILDDERRVTGFSIIGGEHRLTNYKSVTTVHRFEKENRIWTVVLESYVVDMPEGNSEDDTRMFADTVVKLNLQKLATVAEAMARNSGDGSGSQVT
# Variants of: B1
# Settings: with HAB1, Q9CAJ0
# Chain of HAB1, Q9CAJ0 (Q9CAJ0 whole entry): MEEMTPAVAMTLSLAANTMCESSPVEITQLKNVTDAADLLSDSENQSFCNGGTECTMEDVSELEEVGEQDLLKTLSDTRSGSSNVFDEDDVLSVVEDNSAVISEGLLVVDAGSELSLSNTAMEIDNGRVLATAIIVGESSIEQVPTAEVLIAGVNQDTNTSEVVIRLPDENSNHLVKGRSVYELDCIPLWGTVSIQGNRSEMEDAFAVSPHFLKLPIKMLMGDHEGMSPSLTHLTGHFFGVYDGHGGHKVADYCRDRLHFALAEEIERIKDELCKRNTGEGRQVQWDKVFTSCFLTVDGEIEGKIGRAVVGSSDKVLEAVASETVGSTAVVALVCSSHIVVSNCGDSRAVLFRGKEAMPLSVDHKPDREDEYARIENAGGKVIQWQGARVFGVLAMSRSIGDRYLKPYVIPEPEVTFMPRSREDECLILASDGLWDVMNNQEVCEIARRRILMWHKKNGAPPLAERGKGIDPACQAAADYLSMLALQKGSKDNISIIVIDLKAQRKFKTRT
row,Variant,effect of a mutation on the interaction
1,H60P,increasing interaction
